This is an account of results in PMC5714612 (Cell Reports, 2017).

B1: Kif1A-GFP (natural protein, rat, UniProt F1M4A4 1-1707, looked up)
chain: MAGASVKVAVRVRPFNSREMSRDSKCIIQMSGSTTTIVNPKQPKETPKSFSFDYSYWSHTSPEDINYASQKQVYRDIGEEMLQHAFEGYNVCIFAYGQTGAGKSYTMMGKQEKDQQGIIPQLCEDLFSRINDTTNDNMSYSVEVSYMEIYCERVRDLLNPKNKGNLRVREHPLLGPYVEDLSKLAVTSYNDIQDLMDSGNKARTVAATNMNETSSRSHAVFNIIFTQKRHDAETNITTEKVSKISLVDLAGSERADSTGAKGTRLKEGANINKSLTTLGKVISALAEMDSGPNKNKKKKKTDFIPYRDSVLTWLLRENLGGNSRTAMVAALSPADINYDETLSTLRYADRAKQIRCNAIINEDPNNKLIRELKDEVTRLRDLLYAQGLGDITDTNTVPGGPKLTNALVGMSPSSSLSALSSRAASVSSLHERILFAPGSEEAIERLKETEKIIAELNETWEEKLRRTEAIRMEREALLAEMGVAMREDGGTLGVFSPKKTPHLVNLNEDPLMSECLLYYIKDGVTRVGREDAERRQDIVLSGHFIKEEHCIFRSDSRGGGEAVVTLEPCEGADTYVNGKKVTEPSILRSGNRIIMGKSHVFRFNHPEQARQERERTPCAETPAEPVDWAFAQRELLEKQGIDMKQEMEQRLQELEDQYRREREEATYLLEQQRLDYESKLEALQKQMDSRYYPEVNEEEEEPEDEVQWTERECELALWAFRKWKWYQFTSLRDLLWGNAIFLKEANAISVELKKKVQFQFVLLTDTLYSPLPPDLLPPEAAKDRETRPFPRTIVAVEVQDQKNGATHYWTLEKLRQRLDLMREMYDRAAEVPSSVVEDCDNVVTGGDPFYDRFPWFRLVGRAFVYLSNLLYPVPLVHRVAIVSEKGEVKGFLRVAVQAISADEEAPDYGSGVRQSGTAKISFDDQHFEKFQSESCPVVGMSRSGTSQEELRIVEGQGQGADAGPSADEVNNNTCSAVPPEGLLDSPEKAALDGPLDTALDHLRLGSTFTFRVTVLQASSISAEYADIFCQFNFIHRHDEAFSTEPLKNTGRGPPLGFYHVQNIAVEVTKSFIEYIKSQPIVFEVFGHYQQHPFPPLCKDVLSPLRPSRRHFPRVMPLSKPVPATKLSTMTRPSPGPCHCKYDLLVYFEICELEANGDYIPAVVDHRGGMPCMGTFLLHQGIQRRITVTLLHETGSHIRWKEVRELVVGRIRNTPETDEALIDPNILSLNILSSGYVHPAQDDRQFLDSDIPRTFYQFEAAWDSSMHNSLLLNRVTPYREKIYMTLSAYIEMENCTQPAVITKDFCMVFYSRDAKLPASRSIRNLFGSGSLRATEGNRVTGVYELSLCHVADAGSPGMQRRRRRVLDTSVAYVRGEENLAGWRPRSDSLILDHQWELEKLSLLQEVEKTRHYLLLREKLETTQRPVPEVLSPASSEDSESRSSSGASSPLSAEGQPSPLEVPNERQRELAVKCLRLLMHTFNREYTHSHVCISASESKLSEMSVTLMRDPSMSPLGAATLTPSSTCPSLIEGRYGATDVRTPQPCSRPASPEPELLPELDSKKTPSPVRATETEKEPQRLLVPDIQEIRVSPIVSKKGYLHFLEPHTAGWAKRFVVVRRPYAYMYNSDKDTVERFVLNLSTAQVEYSEDQQAMLKTPNTFAVCTEHRGILLQANSDKDMHDWLYAFNPLLAGTIRSKLSRRRSAQMRV
B3: mCherry-tagged S135A Syt4 (phosphodeficient) (natural protein, rat, UniProt P50232 1-425, looked up)
chain: MAPITTSRVEFDEIPTVVGIFSAFGLVFTVSLFAWICCQRRSAKSNKTPPYKFVHVLKGVDIYPENLSSKKKFGGDDKSEAKRKAALPNLSLHLDLEKRDLNGNFPKTNPKAGSSSDLENVTPKLFPETEKEAVAPESLKSSTSLTSEEKQEKLGTLFLSLEYNFEKKAFVVNIKEAQGLPAMDEQSMTSDPYIKMTILPEKKHKVKTRVLRKTLDPVFDETFTFYGVPYPHIQELSLHFTVLSFDRFSRDDVIGEVLVPLSGIELSDGKMLMTREIIKRNAKKSSGRGELLVSLCYQSTTNTLTVVVLKARHLPKSDVSGLSDPYVKVNLYHAKKRISKKKTHVKKCTPNAVFNELFVFDIPCESLEEISVEFLVLDSERGSRNEVIGRLVLGATAEGSGGGHWKEICDFPRRQIAKWHMLCDG
B4: mCherry-tagged S135E Syt4 (phosphomimetic) (natural protein, rat, UniProt P50232 1-425, looked up)
chain: MAPITTSRVEFDEIPTVVGIFSAFGLVFTVSLFAWICCQRRSAKSNKTPPYKFVHVLKGVDIYPENLSSKKKFGGDDKSEAKRKAALPNLSLHLDLEKRDLNGNFPKTNPKAGSSSDLENVTPKLFPETEKEAVEPESLKSSTSLTSEEKQEKLGTLFLSLEYNFEKKAFVVNIKEAQGLPAMDEQSMTSDPYIKMTILPEKKHKVKTRVLRKTLDPVFDETFTFYGVPYPHIQELSLHFTVLSFDRFSRDDVIGEVLVPLSGIELSDGKMLMTREIIKRNAKKSSGRGELLVSLCYQSTTNTLTVVVLKARHLPKSDVSGLSDPYVKVNLYHAKKRISKKKTHVKKCTPNAVFNELFVFDIPCESLEEISVEFLVLDSERGSRNEVIGRLVLGATAEGSGGGHWKEICDFPRRQIAKWHMLCDG

The target of experiment [1] is Kif1A (Kif1A-GFP, GST-tagged full-length Kif1A) (UniProt F1M4A4). The experiment can be described thus: co-IP with GFP-Trap beads, Syt4 blotted. The conditions noted are these: reference: S135A; sites S135.
Experiment [2] has as its target B4. The experiment can be described thus: co-IP.
Experiment [3] concerns the target B3. As to the kind of experiment: co-IP.
For experiment [4], the target named is T1, Recombinant His-tagged S135E Syt4 (rat, UniProt P50232 1-425, S135E).
T1 sequence (looked up): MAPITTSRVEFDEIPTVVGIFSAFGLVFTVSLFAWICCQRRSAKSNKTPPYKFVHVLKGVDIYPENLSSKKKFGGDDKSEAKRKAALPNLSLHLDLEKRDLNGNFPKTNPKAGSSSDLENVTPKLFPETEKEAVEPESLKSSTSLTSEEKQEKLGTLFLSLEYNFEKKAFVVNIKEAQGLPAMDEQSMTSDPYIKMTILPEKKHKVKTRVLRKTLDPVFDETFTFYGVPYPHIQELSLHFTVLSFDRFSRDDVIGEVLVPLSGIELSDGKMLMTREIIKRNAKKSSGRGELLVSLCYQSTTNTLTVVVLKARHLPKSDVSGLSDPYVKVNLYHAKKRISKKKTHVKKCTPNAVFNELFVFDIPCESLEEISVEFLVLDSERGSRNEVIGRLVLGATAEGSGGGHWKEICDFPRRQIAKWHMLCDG
The experiment can be described thus: pull-down.

The experiment “Kif1A-GFP” concerns the target B1. The experiment can be described thus: co-IP.

For the molecule “Synaptotagmin-4 (Syt4) (from UniProt P50232) S135E”, the “other: percent of WT” value in experiment [1] was “weaker; reference 134.4 ± 11.1”.
Consider B1, for which the “amount co-immunoprecipitated, percent of WT” value in experiment [2] is 87 % of WT; in experiment [3], 158 % of WT.

B2: endogenous Kif1A (natural protein, UniProt P33173 1-1695, looked up)
chain: MAGASVKVAVRVRPFNSREMSRDSKCIIQMSGSTTTIVNPKQPKETPKSFSFDYSYWSHTSPEDINYASQKQVYRDIGEEMLQHAFEGYNVCIFAYGQTGAGKSYTMMGKQEKDQQGIIPQLCEDLFSRINDTTNDNMSYSVEVSYMEIYCERVRDLLNPKNKGNLRVREHPLLGPYVEDLSKLAVTSYNDIQDLMDSGNKPRTVAATNMNETSSRSHAVFNIIFTQKRHDAETNITTEKVSKISLVDLAGSERADSTGAKGTRLKEGANINKSLTTLGKVISALAEMDSGPNKNKKKKKTDFIPYRDSVLTWLLRENLGGNSRTAMVAALSPADINYDETLSTLRYADRAKQIRCNAIINEDPNNKLIRELKDEVTRLRDLLYAQGLGDITDMTNALVGMSPSSSLSALSSRAASVSSLHERILFAPGSEEAIERLKETEKIIAELNETWEEKLRRTEAIRMEREALLAEMGVAMREDGGTLGVFSPKKTPHLVNLNEDPLMSECLLYYIKDGVTRVGREDAERRQDIVLSGHFIKEEHCIFRSDSRGGGEAVVTLEPCEGADTYVNGKKVTEPSILRSGNRIIMGKSHVFRFNHPEQARQERERTPCAETPAEPVDWAFAQRELLEKQGIDMKQEMEQRLQELEDQYRREREEATYLLEQQRLDYESKLEALQKQMDSRYYPEVNEEEEEPEDEVQWTERECELALWAFRKWKWYQFTSLRDLLWGNAIFLKEANAISVELKKKVQFQFVLLTDTLYSPLPPDLLPPEAAKDRETRPFPRTIVAVEVQDQKNGATHYWTLEKLRQRLDLMREMYDRAAEVPSSVVEDCDNVVTGGDPFYDRFPWFRLVGRAFVYLSNLLYPVPLVHRVAIVSEKGEVKGFLRVAVQAISADEEAPDYGSGVRQSGTAKISFDDQHFEKFQSESCPVVGMSRSGTSQEELRIVEGQGQGADAGPSADEVNNNTCSAVPPEGLMDSPEKAALDGPLDTALDHLRLGSTFTFRVTVLQASSISAEYADIFCQFNFIHRHDEAFSTEPLKNTGRGPPLGFYHVQNIAVEVTKSFIEYIKSQPIVFEVFGHYQQHPFPPLCKDVLSPLRPSRRHFPRVMPLSKPVPATKLSTMTRPSPGPCHCKYDLLVYFEICELEANGDYIPAVVDHRGACMGTFLLHQGIQRRITVTLLHETGSHIRWKEVRELVVGRIRNTPETDEALIDPNILSLNILSSGYVHPAQDDRVFFGNDTRTFYQFEAAWDSSMHNSLLLNRVTPYREKIYMTLSAYIEMENCTQPAVITKDFCMVFYSRDAKLPASRSIRNLFGSGSLRATEGNRVTGVYELSLCHVADAGSPGMQRRRRRVLDTSVAYVRGEENLAGWRPRSDSLILDHQWELEKLSLLQEVEKTRHYLLLREKLETTQRPGPEVLSPASSEDSESRSSSGASSPLSAEGQPSPLEAPNERQRELAVKCLRLLMHTFNREYTHSHVCISASESKLSEMSVTLMRDPSMSPLGAATLTPSSTCPSLIEGRYGATDVRTPQPCSRPASPEPELLPELDSKKTPSPVRATETEKEPQRLLVPDIQEIRVSPIVSKKGYLHFLEPHTAGWAKRFVVVRRPYAYMYNSDKDTVERFVLNLSTAQVEYSEDQQAMLKTPNTFAVCTEHRGILLQANSDKDMHDWLYAFNPLLAGTIRSKLSRRRSAQMRV
On to B2, for which the “amount pulled down, percent of WT” value in experiment [4] is 43.6 % of WT.
Take B3: the “amount co-immunoprecipitated, percent of WT” value in the experiment with Kif1A-GFP was 134 % of WT.
On the same count and under the same terms, the same measure for B4: 42.9 % of WT.
